Assay results taken from patent US11447754B2, “In vitro methods of chemical conversion using non-stereospecific glutathione lyases” (WISCONSIN ALUMNI RESEARCH FOUNDATION, priority 2017, dated 2022).

B1: BaeA: heterodimeric β-aryl etherase of Saro_2872 (SEQ ID NO:40) and Saro_2873 (SEQ ID NO:42) from Novosphingobium aromaticivorans (protein)
chain 1: MSALLYHGEPNGASLTVLAALAETGLDIECRRIDLLAGERHSLPGIVDPVALDLSIEGEGPVLVIDGEAMTESVFLAQYLDEAAGGVGLQPTDAYARWEMMMWCRQITERLSPAAALLGNLATSQSAIAAIPAEDFAILAARIVSDDLRERWQALNDDAVNAAQVADSETKVAAAVDRCEKQLGDGREWLMGTFSIADLVTYSWLAGMEPLRPAAFADAPLVKAWLARTAARPCVQAALARATISEPLRAWAPGPEINRWG
chain 2: MDEVSLYHWEPNANSGKPMLALMEKGVPFSSHYIDMLQFDQHKPEYLAINPQGTIPAMTHNGQVLTESTAIMEYVNDRFDGPDLMPADAQDRWRVRWWMKFMDQWLGPSFSMIGWSVFVGPMVRQRDPAELAAAIDRIPLPERRTAWRKAINGDFSESEMAESRRRVGLGIAKLEEELGKRPYVGSNQYSLADINIFNSTYSLPISQPDLAGKDRTPNIMRWLKRVYTREAVKKTWAMGKTDLAHRYGLIMAEIEG
modifications: Novosphingobium aromaticivorans
B2: SYK6GSTNu: Nu-class GST from Sphingobium sp. SYK-6 encoded by SLG_04120, SEQ ID NO:22 (protein)
chain: MADSDPSMNQPTGYVPPKVWTWDKENGGQFSNINAPTAGARQDVTLPVGEHPIQLYSLGTPNGQKVTIMLEELLAAGFDAEYDAWLIKIYTGEQFGSDFVAINPNSKIPAMMDHGLDPPLRLFESGSMLVYLAEKFGAFLPTEIRKRTETFNWLMWQMGSAPFVGGGFGHFYAYAPFKIEYAIDRYAMETKRQLDVLDKNLADREFMIGDEITIADFAIFPWYGSIMRGGYNAQEFLSTHEYRNVDRWVTQLSERTGVKRGLLVNSAGRPGGGIAERHSAADLDASIKAAEQEAAKTEA
modifications: Sphingobium sp. SYK-6
B3: NaGSTNu: Nu-class glutathione S-transferase from Novosphingobium aromaticivorans DSM 12444 (Saro_2595), SEQ ID NO:18; non-stereospecific glutathione lyase (protein)
chain: MSSEYVPPKVWKWDKANGGAFASVNRPVAGPTSERELPVGKHPFQVYSLGTPNGQKATIMLEELLQLGFSEAEYDAWLIKIFEGDQFTSGFVDINPNSKIPAMVDRSGPEPFRVFESGAILMHLAEKFGVFLPTSGPARAECLSWLFWQVGSAPFIGGGFGHFYNYAPIKIEYAIDRYAMETKRLFDVANRRLAESRYLAGDEYTIADLATYTWFGNIYRGEAYGEAATFLSMHEYEHVGRWVGEIDARPGVLRGRLVNSSKGLAERHDASDFDALPPESLQAIVKGF
modifications: Novosphingobium aromaticivorans
notes: non-stereospecific glutathione lyase

Experiments:
Type in all cases: biochemical
[1] = Assays to determine activities and stereospecificities of Saro_2872 and Saro_2873
Experimental: Cell-free protein synthesis. Cell-free protein synthesis was run essentially as previously described (Makino et al. 2014). The Saro_2872 polypeptide contained a His6-tag and a Tev protease recognition site on its N-terminus that were not removed. The Saro_2873 polypeptide was synthesized in its native form. Synthesized polypeptides were not purified from the synthesis reaction mixture; assays for enzymatic activity were performed by adding aliquots directly from the synthesis reaction. Concentrations of the Saro_2872 and Saro_2873 polypeptides in the reaction mixtures were approximated using the intensities of the bands in an SDS-PAGE gel.
0.1 mM racemic (β(S) and β(R)) MPHPV was combined with 5.8 mM glutathione (GSH) in reaction buffer (RB; 25 mM Tris-HCl (pH 8.0) and 25 mM NaCl). […] These 212 μL reactions were incubated at 30° C. for several hours, then analyzed via HPLC.
HPLC analysis. Analysis and quantification of aromatic compounds were performed using an Ultra AQ C18 5 μm column (Restek) attached to a System Gold HPLC (Beckman Coulter) with running buffers and methods described in Example 1. The eluent was analyzed for light absorbance between 191 and 600 nm, and absorbances at 280 nm were used for quantification of aromatic metabolites by comparing peak areas to those of standards.

[2] = Kinetics analysis of GS-HPV cleavage (conversion into HPV), β(S)-stereoisomer
Experimental: (§1) Kinetics analysis of GS-HPV cleavage. The Reaction Buffer (RB) consisted of 25 mM Tris-HCl (pH 8.5) and 25 mM NaCl. The β(R)- and β(S)-stereoisomers of GS-HPV were separately generated by incubating racemic MPHPV (0.46 mM) in RB with 5 mM reduced glutathione (GSH) and either 38 μg/mL LigF1 or 36 μg/mL LigE, respectively, for several h. This sample, containing a single GS-HPV stereoisomer, guaiacol, and the unreacted MPHPV stereoisomer, was diluted with RB to achieve the desired concentration of GS-HPV for the time course reaction (0.005, 0.011, 0.022, 0.096, or 0.193 mM). An additional 5 mM GSH (dissolved in RB) was added prior to initiation of each time course. […] Assays were performed at 25° C., and at specified time points, 300 μL of the reaction was removed and combined with 100 μL 1 M HCl (Acros Organics; Geel, Belgium) to stop the reaction before HPLC analysis to quantify HPV formed.
(§2) HPLC analysis. After extracellular aromatics were identified using LC-MS, routine analysis and quantification of aromatics were performed using an Ultra AQ C18 5 μm column (Restek, Bellefonte, Pa.) attached to a System Gold HPLC (Beckman Coulter, Brea, Calif.) with running buffers and chromatography conditions described in FIG. 14. […]

[3] = Kinetics analysis of GS-HPV cleavage (conversion into HPV), β(R)-stereoisomer
Experimental: as §1, §2

Molecule	conversion of racemic MPHPV into GS-HPV and guaiacol ([1]; both polypeptides combined, ~24 nM each, 30° C.)	reaction with β(S)-MPHPV ([1]; recombinantly generated Saro_2872-Saro_2873 complex)	kcat/KM with the β(S)-isomer, fold higher than with the β(R)-isomer [2]	KM with β(R)-GS-HPV, fold higher than with β(S)-GS-HPV [3]
B1	half of the MPHPV was converted	did not react	–	–
B2	–	–	~10 fold	–
B3	–	–	~4 fold	~5 fold
